{"source": "patent US20230026259A1", "about": "“CA2 COMPOSITIONS AND METHODS FOR TUNABLE REGULATION” (Obsidian Therapeutics, Inc., priority 2019, published 2023)", "molecules": {"B1": {"name": "OT-001661: constitutive CD40L control (protein)", "chain": "MHMIETYNQTSPRSAATGLPISMKIFMYLLTVFLITQMIGSALFAVYLHRRLDKIEDERNLHEDFVFMKTIQRCNTGERSLSLLNCEEIKSQFEGFVKDIMLNKEETKKENSFEMQKGDQNPQIAAHVISEASSKTTSVLQWAEKGYYTMSNNLVTLENGKQLTVKRQGLYYIYAQVTFCSNREASSQAPFIASLCLKSPGRFERILLRAANTHSSAKPCGQQSIHLGGVFELQPGASVFVNVTDPSQVSHGTGFTSFGLLKL"}}, "tested_on": "T cells", "test": "CD40L expression of CA2 regulated CD40L constructs in T cells by FACS (dose response, time course)", "assay_type": "cell-based", "conditions": "for CD40L positive / MFI: Ligand N/A; for CD40L MFI / Percentage CD40L positive cells: constitutive CD40L", "source_text": "CD40L constructs regulated by Carbonic anhydrase DDs were generated and cloned into lentiviral vectors. Purified T cells were thawed and cultured with aCD3 aCD28 Dynabeads (in the ratio of 3 beads to 1 T cell).\nThe constructs were transduced in T cells the next day. […]"}
{"molecule": "B1", "values": [{"measurement": "CD40L positive", "setting": "Example 9, All Cells", "value": 98, "unit": "%"}, {"measurement": "MFI", "setting": "Example 9, All Cells", "value": 20451}, {"measurement": "CD40L positive", "setting": "Example 9, CD4+", "value": 98.7, "unit": "%"}, {"measurement": "MFI", "setting": "Example 9, CD4+", "value": 24489}, {"measurement": "CD40L positive", "setting": "Example 9, CD8+", "value": 97.8, "unit": "%"}, {"measurement": "MFI", "setting": "Example 9, CD8+", "value": 14352}, {"measurement": "CD40L MFI", "setting": "time course 2 hours, CD4+", "value": 4042}, {"measurement": "Percentage CD40L positive cells", "setting": "time course 2 hours, CD4+", "value": 72.8, "unit": "%"}, {"measurement": "CD40L MFI", "setting": "time course 2 hours, CD8+", "value": 2212}, {"measurement": "Percentage CD40L positive cells", "setting": "time course 2 hours, CD8+", "value": 56.9, "unit": "%"}, {"measurement": "CD40L MFI", "setting": "time course 4 hours, CD4+", "value": 4651}, {"measurement": "Percentage CD40L positive cells", "setting": "time course 4 hours, CD4+", "value": 77, "unit": "%"}, {"measurement": "CD40L MFI", "setting": "time course 4 hours, CD8+", "value": 2994}, {"measurement": "Percentage CD40L positive cells", "setting": "time course 4 hours, CD8+", "value": 63.2, "unit": "%"}, {"measurement": "CD40L MFI", "setting": "time course 6 hours, CD4+", "value": 3156}, {"measurement": "Percentage CD40L positive cells", "setting": "time course 6 hours, CD4+", "value": 67.2, "unit": "%"}, {"measurement": "CD40L MFI", "setting": "time course 6 hours, CD8+", "value": 1773}, {"measurement": "Percentage CD40L positive cells", "setting": "time course 6 hours, CD8+", "value": 48.5, "unit": "%"}, {"measurement": "CD40L MFI", "setting": "time course 24 hours, CD4+", "value": 9491}, {"measurement": "Percentage CD40L positive cells", "setting": "time course 24 hours, CD4+", "value": 93.3, "unit": "%"}, {"measurement": "CD40L MFI", "setting": "time course 24 hours, CD8+", "value": 3563}, {"measurement": "Percentage CD40L positive cells", "setting": "time course 24 hours, CD8+", "value": 71.2, "unit": "%"}, {"measurement": "CD40L MFI", "setting": "time course 48 hours, CD4+", "value": 5639}, {"measurement": "Percentage CD40L positive cells", "setting": "time course 48 hours, CD4+", "value": 88.5, "unit": "%"}, {"measurement": "CD40L MFI", "setting": "time course 48 hours, CD8+", "value": 2313}, {"measurement": "Percentage CD40L positive cells", "setting": "time course 48 hours, CD8+", "value": 71.1, "unit": "%"}]}
